Target: xenopus Lgr4 ectodomain (residues 24-455) (xenopus)
Experiment: SEC + other: dynamic light scattering

Work on “xenopus Lgr4 ectodomain (residues 24-455) (domain or fragment)” yielded a stoichiometry N of 2.
